Here are results for 83 variants from the RNAGym collection of RNA variant scans (doi:10.1073/pnas.2313332121).

The chains are these.
B1: TPR 5TU (parent)
chain: GGAUCUUCUCGAUCUAACAAAAAAGACAAAUCUGCCACAAAGCUUGAGAGCAUCUUCGGAUGCAGAGGCGGCAGCCUUCGGUGGCGCGAUAGCGCCAACGUUCUCAACUAUGACACGCAAAACGCGUGCUCCGUUGAAUGGAGUUUAUCAUG

Variants at the floor of the assay were thinned out.

This data set covers variants of B1. Put plainly: polymerase ribozyme fitness, log enrichment relative to wild type (log ratio); higher = more active; in vitro selection for triplet polymerase activity. Put shortly: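 To select mutant libraries of each subunit of a heterodimeric triplet polymerase ribozyme, built by PCR and transcribed, each was annealed with a biotinylated primer, partner subunit and triplets, then incubated frozen at −7 °C. Extended constructs were gel-excised, captured on streptavidin beads and amplified by RT-PCR, in one round carried out in triplicate. Illumina sequencing of input and output libraries kept genotypes with ≥10 input reads and ≥1 read per output. Fitness is the base-2 logarithm of genotype enrichment relative to wild-type enrichment, from inverse-variance-weighted replicate averages.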
On to A19G G59U G84U C105G, for which the “polymerase ribozyme fitness (log ratio)” value was -3.78.

Consider A19U A40G G124A, for which the “polymerase ribozyme fitness (log ratio)” value was -4.11.

Take A19G G42A A66C C85U A106U U148A: the “polymerase ribozyme fitness (log ratio)” value is no more than -4.2.

For A19G G50U A73G C85U, the “polymerase ribozyme fitness (log ratio)” value is -0.781.

A19U U45A G83C: the “polymerase ribozyme fitness (log ratio)” value was -3.67.

As for A19U A106G G143C, the “polymerase ribozyme fitness (log ratio)” value was -2.4.

As for A19U A21G U45G U56A G92U, the “polymerase ribozyme fitness (log ratio)” value is -1.94.

For the variant A19U A24U G46U A49C U82G C99A, the “polymerase ribozyme fitness (log ratio)” value is no more than -4.2.

Take A19G U33C A41C A91U C93A A97C: the “polymerase ribozyme fitness (log ratio)” value is no more than -4.2.

Turning to A19U A30U G62C G65C C96A, the “polymerase ribozyme fitness (log ratio)” value is no more than -4.2.

Regarding A19U U61A G86U A107G A115U G152U, the “polymerase ribozyme fitness (log ratio)” value is no more than -4.2.

Regarding A19G U148G, the “polymerase ribozyme fitness (log ratio)” value was -3.88.

Turning to A19U G59A G83U U139G, the “polymerase ribozyme fitness (log ratio)” value was -1.28.

With A19U A26U G46A C87A A91U G94A U127C G143C, the “polymerase ribozyme fitness (log ratio)” value was no more than -4.2.

As to A19U U44A C95U C99G, the “polymerase ribozyme fitness (log ratio)” value is no more than -4.2.

As to A19U C54U U134C A150C, the “polymerase ribozyme fitness (log ratio)” value is -2.5.

On to A19U G50U G58C C75U C118G A120G G141A U146A, for which the “polymerase ribozyme fitness (log ratio)” value was no more than -4.2.

As for A19U A49C C69U U77G C79A G84A C99A A113C C114G A142C, the “polymerase ribozyme fitness (log ratio)” value was no more than -4.2.

A19U A28C A40C A41C U44G C85A A113C: the “polymerase ribozyme fitness (log ratio)” value was no more than -4.2.

With A19U U55A G59U, the “polymerase ribozyme fitness (log ratio)” value came to 0.528.

Turning to A19G G50A C69U G84U A98U A122G, the “polymerase ribozyme fitness (log ratio)” value was no more than -4.2.

With A19U A89U G136U, the “polymerase ribozyme fitness (log ratio)” value was -3.55.

Consider A19G U90G, for which the “polymerase ribozyme fitness (log ratio)” value was no more than -4.2.

Consider A19U C38G G59C G86A C99U G117U C118A U127A A138G, for which the “polymerase ribozyme fitness (log ratio)” value is no more than -4.2.

As to A19U A20U C85U, the “polymerase ribozyme fitness (log ratio)” value is -2.59.

A19U G58A G94U C116A A119C: the “polymerase ribozyme fitness (log ratio)” value was -0.758.

For the variant A19U A24C C35U C57U A66C G86U, the “polymerase ribozyme fitness (log ratio)” value is -4.08.

A19U G86A: the “polymerase ribozyme fitness (log ratio)” value is -2.04.

Turning to A19U G86C, the “polymerase ribozyme fitness (log ratio)” value is -2.58.

Consider A19U C69G C85U U134G G152U, for which the “polymerase ribozyme fitness (log ratio)” value was no more than -4.2.

Turning to A19U U33A G84A G92C G94C, the “polymerase ribozyme fitness (log ratio)” value was no more than -4.2.

As for A19G U109C G141A, the “polymerase ribozyme fitness (log ratio)” value is -2.85.

Take A19U C96G C114U: the “polymerase ribozyme fitness (log ratio)” value is -2.99.

A19G G25U A47C U78C C96A: the “polymerase ribozyme fitness (log ratio)” value was no more than -4.2.

With A19U C69U G92C G126C, the “polymerase ribozyme fitness (log ratio)” value was -1.04.

Regarding A19U A52C, the “polymerase ribozyme fitness (log ratio)” value was -1.34.

Regarding A19U U55G G86U, the “polymerase ribozyme fitness (log ratio)” value is -1.7.

Turning to A19U G50U C51A C96U A119G, the “polymerase ribozyme fitness (log ratio)” value is -3.91.

As to A19G U55A, the “polymerase ribozyme fitness (log ratio)” value was -0.576.

For the variant A19G G67C G124U, the “polymerase ribozyme fitness (log ratio)” value was no more than -4.2.

Regarding A19U G84C, the “polymerase ribozyme fitness (log ratio)” value was -2.08.

Take A19G G42U G50U A52U C75U G88U G92C G143A: the “polymerase ribozyme fitness (log ratio)” value is no more than -4.2.

As for A19U U53G C93G, the “polymerase ribozyme fitness (log ratio)” value was no more than -4.2.

With A19U U31C C51U, the “polymerase ribozyme fitness (log ratio)” value stood at 0.159.

For the variant A19U A23C C27A C85A, the “polymerase ribozyme fitness (log ratio)” value was no more than -4.2.

Take A19G U53G A120U: the “polymerase ribozyme fitness (log ratio)” value was -2.57.

Consider A19U A23C A29G G83C A97U C103G U139C, for which the “polymerase ribozyme fitness (log ratio)” value was no more than -4.2.

Regarding A20C A21G A23C A28U C38A, the “polymerase ribozyme fitness (log ratio)” value was no more than -4.2.

In the case of A19U U31G U144C, the “polymerase ribozyme fitness (log ratio)” value is -1.49.

As to A19G U56A G86A G141U, the “polymerase ribozyme fitness (log ratio)” value is -1.64.

On to A19U G141A, for which the “polymerase ribozyme fitness (log ratio)” value is 0.304.

With A19U A73G G86U, the “polymerase ribozyme fitness (log ratio)” value was -1.03.

A19U A47C C93U: the “polymerase ribozyme fitness (log ratio)” value is -1.1.

Take A19U C57G C95U C103G U104G: the “polymerase ribozyme fitness (log ratio)” value is no more than -4.2.

As for A19U U44G G50C A73G C76A G140A, the “polymerase ribozyme fitness (log ratio)” value is no more than -4.2.

Regarding A19U A22C A40C C43G A66C C95A G141U G152A, the “polymerase ribozyme fitness (log ratio)” value is -3.6.

With A19U C57U C103G A119G C123A, the “polymerase ribozyme fitness (log ratio)” value is -3.45.

Consider A19U G48A, for which the “polymerase ribozyme fitness (log ratio)” value was -1.05.

As for A19U G48U, the “polymerase ribozyme fitness (log ratio)” value is -0.613.

With A19U A21U C85G, the “polymerase ribozyme fitness (log ratio)” value was -2.46.

For the variant A19U C85A, the “polymerase ribozyme fitness (log ratio)” value is -1.33.

A19U C85G: the “polymerase ribozyme fitness (log ratio)” value was -2.18.

As for A19U C87U G141U U146C, the “polymerase ribozyme fitness (log ratio)” value is 0.666.

As for A19G G84C A115U A121G, the “polymerase ribozyme fitness (log ratio)” value is -3.97.

Turning to A19U A37U U44G A66U G92U C96A C123U G124A, the “polymerase ribozyme fitness (log ratio)” value is no more than -4.2.

A19U C69G C72U G84A: the “polymerase ribozyme fitness (log ratio)” value is -3.03.

For A19U G94A, the “polymerase ribozyme fitness (log ratio)” value was -1.

As for A19U G46U A89C, the “polymerase ribozyme fitness (log ratio)” value is -2.83.

With A19U C51G G59C C75G G88A A91U C96U G141C, the “polymerase ribozyme fitness (log ratio)” value was no more than -4.2.

A19U A37C U135G: the “polymerase ribozyme fitness (log ratio)” value was -3.82.

On to A19U A22G A39C C79G, for which the “polymerase ribozyme fitness (log ratio)” value was no more than -4.2.

Turning to A19G G83A C85A C96U A97C A119G, the “polymerase ribozyme fitness (log ratio)” value was no more than -4.2.

A19G U109G C118G U144A: the “polymerase ribozyme fitness (log ratio)” value was -3.72.

On to A19U C85A A113U, for which the “polymerase ribozyme fitness (log ratio)” value was -3.44.

A19U A20U C85U A142G: the “polymerase ribozyme fitness (log ratio)” value was -2.89.

In the case of A19U A22C G94C C96G C123U G128A U139C U146C, the “polymerase ribozyme fitness (log ratio)” value is no more than -4.2.

A19U A120U: the “polymerase ribozyme fitness (log ratio)” value was -0.806.

In the case of A19G G50A G83C G86U C96U, the “polymerase ribozyme fitness (log ratio)” value is no more than -4.2.

Take A19U C105G: the “polymerase ribozyme fitness (log ratio)” value is -1.81.

As to A19U A40U C54A A60G C96U, the “polymerase ribozyme fitness (log ratio)” value was -2.61.

Take A19U A40C A91U C95G: the “polymerase ribozyme fitness (log ratio)” value is no more than -4.2.

For A19U A49C A52G A106G, the “polymerase ribozyme fitness (log ratio)” value was no more than -4.2.

Consider A19U U55G C85G C96U C116A U139A, for which the “polymerase ribozyme fitness (log ratio)” value was no more than -4.2.
